According to PMC6856015:

Target: Calmodulin (recombinant CaM) (UniProt P0DP23)
Assay: cross-linking; photoaffinity labeling (PAL): 5 μM CaM and 5 μM Bpa-Mover(203-221), 10 mM HEPES pH 7.2, 150 mM KCl, 5 mM DTT, 2 h RT in the dark, with 100 μM Ca2+, UV irradiation; photoadducts read by SDS-PAGE and MALDI-TOF-MS

Substance: Bpa-Mover(203-221), photoreactive variant of the rat Mover peptide 203-221 (from UniProt A8WCF8 203-221)
- stoichiometry N (peptide per CaM): 1
